Reference: patent US20180186893A1 (NATIONAL RESEARCH COUNCIL OF CANADA, published 2018)

B1: c12H8 (chimeric 12H8, human IgG1 / human kappa 1) (antibody, V domains shown)
VH: QIQLVQSGPELKKPGETVKISCKASGYTFTNYGMNWVQQAPGKGLKWMGWINTYTGEPTYADDFKGRFAFSLETSASTAYLQINNLKNEDMATYFCARGGIATPTSYWGQGTTLTVSS
VL: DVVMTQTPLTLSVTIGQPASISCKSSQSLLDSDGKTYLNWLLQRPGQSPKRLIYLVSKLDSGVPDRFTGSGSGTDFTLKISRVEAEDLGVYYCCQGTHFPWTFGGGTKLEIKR
notes: Expressed in CHO cells
B2: c12H8-DM1 (antibody, V domains shown)
VH: B1 VH
VL: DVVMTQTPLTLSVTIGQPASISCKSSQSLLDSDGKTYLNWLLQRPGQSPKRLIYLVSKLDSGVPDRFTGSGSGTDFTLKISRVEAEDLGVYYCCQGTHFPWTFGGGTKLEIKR
modifications: DM1 (mertansine) conjugated with SMCC-DM1, target DAR 3.5; sites not stated
B3: mAb 12H8 (hybridoma-derived) (antibody, mouse IgG1, V domains shown)
VH: B1 VH
VL: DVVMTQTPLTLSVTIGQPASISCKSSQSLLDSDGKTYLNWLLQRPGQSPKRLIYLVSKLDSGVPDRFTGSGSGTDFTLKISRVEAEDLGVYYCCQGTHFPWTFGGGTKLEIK
notes: also called clone 12H8 (fusion F101); 12HD8
B4: c11H9 (chimeric 11H9, human IgG1 / human kappa 1) (antibody, V domains shown)
VH: EVQLVESGGRLVQPKGSLKLSCAASGFTFNTYAMYWIRQAPGKGLEWVARIRSKSNNYAIYYADSVKDRFTISRDDSQSMLYLQMNNLKTEDTAMYYCVRGWDWFAYWGQGTPVTVSA
VL: DVVMTQTPLSLPVSLGDQASISCRSSQSLVHSNGNTYLHWYLQKPGQSPKLLIYKVSNRFSGVPDRFSGSGSGTDFTLKISRVEAEDLGVYFCSQNTHVPPTFGGGTKLEIKR
notes: Expressed in CHO cells; also called chimeric (c) 11H9; c1H9

How the values were obtained:
[1] = target: T1, hCA-IX PG domain fragment #13 (aa 107-140) displayed on yeast as Aga2-HA-CA9-MYC (pPNL6), clone 13 A + B (human, UniProt P32781 19-87 (Saccharomyces cerevisiae entry)); test: YSD whole yeast cell ELISA, native PG tiling fragment;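 note: monoclonal antibody binding to intact yeast cells displaying the fragment, read by ELISA, with the anti-CA-IX signal normalized against the anti-MYC display signal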
T1 construct: not shown: HA tag; MYC tag

[2] = target: T2, hCA-IX PG domain fragment #7 (aa 97-111) displayed on yeast as Aga2-HA-CA9-MYC (pPNL6), clone 7 A + B (human, UniProt P32781 19-87 (Saccharomyces cerevisiae entry)); test: as above
T2 construct: not shown: HA tag; MYC tag

[3] = target: T3, hCA-IX PG domain fragment #8 (aa 107-121) displayed on yeast as Aga2-HA-CA9-MYC (pPNL6), clone 8 A + B (human, UniProt P32781 19-87 (Saccharomyces cerevisiae entry)); test: as above
T3 construct: not shown: HA tag; MYC tag

[4] = target: T4, hCA-IX PG domain fragment #2 (aa 47-61) displayed on yeast as Aga2-HA-CA9-MYC (pPNL6), clone 2 A + B (human, UniProt P32781 19-87 (Saccharomyces cerevisiae entry)); test: as above
T4 construct: not shown: HA tag; MYC tag

[5] = target: T5, hCA-IX PG domain fragment #12 (aa 67-111) displayed on yeast as Aga2-HA-CA9-MYC (pPNL6), clone 12 A + B (human, UniProt P32781 19-87 (Saccharomyces cerevisiae entry)); test: as above
T5 construct: not shown: HA tag; MYC tag

[6] = target: T6, hCA-IX PG domain fragment #9 (aa 117-131) displayed on yeast as Aga2-HA-CA9-MYC (pPNL6), clone 9 A + B (human, UniProt P32781 19-87 (Saccharomyces cerevisiae entry)); test: as above
T6 construct: not shown: HA tag; MYC tag

[7] = target: T7, hCA-IX PG domain fragment #5 (aa 77-91) displayed on yeast as Aga2-HA-CA9-MYC (pPNL6), clone 5 A + B (human, UniProt P32781 19-87 (Saccharomyces cerevisiae entry)); test: as above
T7 construct: not shown: HA tag; MYC tag

[8] = target: T8, hCA-IX PG domain fragment #4 (aa 67-81) displayed on yeast as Aga2-HA-CA9-MYC (pPNL6), clone 4 A + B (human, UniProt P32781 19-87 (Saccharomyces cerevisiae entry)); test: as above
T8 construct: not shown: HA tag; MYC tag

[9] = target: T9, hCA-IX PG domain fragment #10 (aa 126-140) displayed on yeast as Aga2-HA-CA9-MYC (pPNL6), clone 10 A + B (human, UniProt P32781 19-87 (Saccharomyces cerevisiae entry)); test: as above
T9 construct: not shown: HA tag; MYC tag

[10] = target: T10, hCA-IX PG domain fragment #6 (aa 87-101) displayed on yeast as Aga2-HA-CA9-MYC (pPNL6), clone 6 A + B (human, UniProt P32781 19-87 (Saccharomyces cerevisiae entry)); test: as above
T10 construct: not shown: HA tag; MYC tag

[11] = target: T11, hCA-IX PG domain fragment #3 (aa 57-71) displayed on yeast as Aga2-HA-CA9-MYC (pPNL6), clone 3 A + B (human, UniProt P32781 19-87 (Saccharomyces cerevisiae entry)); test: as above
T11 construct: not shown: HA tag; MYC tag

[12] = target: T12, hCA-IX PG domain fragment #1 (aa 37-51) displayed on yeast as Aga2-HA-CA9-MYC (pPNL6), clone 1 A + B (human, UniProt P32781 19-87 (Saccharomyces cerevisiae entry)); test: YSD whole yeast cell ELISA, native PG tiling fragment, normalised to anti-MYC
T12 construct: not shown: HA tag; MYC tag

[13] = target: T13, hCA-IX PG domain fragment #11 (aa 37-71) displayed on yeast as Aga2-HA-CA9-MYC (pPNL6), clone 11 A + B (human, UniProt P32781 19-87 (Saccharomyces cerevisiae entry)); test: as above
T13 construct: not shown: HA tag; MYC tag

[14] = target: T14, hCA-IX PG domain fragment #14 (aa 37-140) displayed on yeast as Aga2-HA-CA9-MYC (pPNL6), clone 14 A + B (human, UniProt P32781 19-87 (Saccharomyces cerevisiae entry)); test: as above
T14 construct: not shown: HA tag; MYC tag

[15] = target: T15, dimeric CA-IX extracellular domain (ECD) from mouse (mouse, UniProt Q8VHB5 32-390); test: SPR, antibody captured by anti-human Fc, specific binding yes/no
T15 construct: extracellular domain

rhCA-IV = target: T16, rhCA-IV (human, UniProt P22748 19-283, limits assumed); test: SPR, antibody captured by anti-human Fc
T16 construct: Bought; construct not described; also called recombinant human CA-IV

rhCA-XIV = target: T17, rhCA-XIV (human, UniProt Q9ULX7 16-290, limits assumed); test: SPR, antibody captured by anti-human Fc
T17 construct: Bought; construct not described; also called recombinant human CA-XIV

rhCA-XII = target: T18, rhCA-XII (human, UniProt O43570 25-291, limits assumed); test: SPR, antibody captured by anti-human Fc
T18 construct: Bought; construct not described; also called recombinant human CA-XII (Sino Biologics)

rmCA-IX = target: T19, rmCA-IX (murine, UniProt Q8VHB5 32-389, limits assumed); test: SPR, antibody captured by anti-human Fc
T19 construct: Bought; construct not described; also called recombinant murine (rm)CA-IX

[16] = target: T20, human CA-XII extracellular domain (ECD) (human, UniProt O43570 25-301); test: SPR, antibody captured by anti-human Fc
T20 construct: extracellular domain

rhCA-IX ECD dimer [17] = target: T21, rhCA-IX ECD dimer (human, UniProt Q16790 38-414); test: SPR (ProteOn XPR36), antibody captured by anti-human Fc, 0.74-60 nM antigen flowed, 1:1 model, 25 C
[18] = target: human Carbonic Anhydrase IX (hCA-IX) (human, UniProt Q16790 38-459); test: cell-based or functional assay
[19] = target: T22, hCA-IX fragment 2 (aa 38-136, +PG+) displayed on yeast as Aga2-HA-CA9-MYC (pPNL6), clone 2B (human, UniProt P32781 19-87; Q16790 38-136); test: YSD whole yeast cell ELISA, native, normalised to anti-MYC
T22 construct: not shown: HA tag; MYC tag

[20] = target: T23, hCA-IX fragment 8 (aa 38-414, +PG+CA+) displayed on yeast as Aga2-HA-CA9-MYC (pPNL6), clone 8B (human, UniProt P32781 19-87; Q16790 38-414); test: YSD whole yeast cell ELISA, heat-denatured (80 C, 30 min), normalised to anti-MYC
[21] = target: T24, rhCA-IX ECD mixture (monomer + dimer) (human, UniProt Q16790 38-414); test: reverse phase protein array, purified antigen; RPPA; ratio native/denatured, purified antigen
[22] = target: T24, rhCA-IX ECD mixture (monomer + dimer); test: SPR (ProteOn XPR36), mAb captured by anti-mouse Fc, 60 nM antigen flowed, 1:1 model, 25 C
rhCA-IX ECD dimer [23] = target: T21, rhCA-IX ECD dimer; test: as above
[24] = target: T12, hCA-IX PG domain fragment #1 (aa 37-51) …; test: YSD whole yeast cell ELISA, native PG tiling fragment;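 note: monoclonal antibody binding to intact yeast cells displaying the fragment, read by ELISA, with the anti-CA-IX signal normalized against the anti-MYC display signal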
[25] = target: T13, hCA-IX PG domain fragment #11 (aa …); test: as above
[26] = target: T5, hCA-IX PG domain fragment #12 (aa …); test: YSD whole yeast cell ELISA, native PG tiling fragment, normalised to anti-MYC
[27] = target: T7, hCA-IX PG domain fragment #5 (aa 77-91) …; test: as above
[28] = target: T10, hCA-IX PG domain fragment #6 (aa …); test: as above
[29] = target: T23, hCA-IX fragment 8 (aa 38-414, +PG+CA+) …; test: YSD whole yeast cell ELISA, native, normalised to anti-MYC

T20 sequence (O43570 25-301): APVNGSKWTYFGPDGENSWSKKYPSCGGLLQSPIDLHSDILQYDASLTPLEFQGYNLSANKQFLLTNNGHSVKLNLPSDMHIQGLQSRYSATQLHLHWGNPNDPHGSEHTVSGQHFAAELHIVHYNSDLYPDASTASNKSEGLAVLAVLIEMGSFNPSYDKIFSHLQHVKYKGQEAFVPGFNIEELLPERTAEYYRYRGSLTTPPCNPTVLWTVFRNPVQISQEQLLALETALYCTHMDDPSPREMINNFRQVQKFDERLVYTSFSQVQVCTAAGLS
T17 sequence (Q9ULX7 16-290 limits assumed): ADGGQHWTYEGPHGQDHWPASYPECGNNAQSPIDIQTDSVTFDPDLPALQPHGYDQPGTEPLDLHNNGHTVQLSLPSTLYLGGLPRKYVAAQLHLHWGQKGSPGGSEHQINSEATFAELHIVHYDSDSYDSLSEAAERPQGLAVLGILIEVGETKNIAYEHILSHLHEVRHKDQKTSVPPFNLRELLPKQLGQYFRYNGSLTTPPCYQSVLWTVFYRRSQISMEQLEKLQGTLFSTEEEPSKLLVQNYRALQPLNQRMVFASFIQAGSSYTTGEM
T18 sequence (O43570 25-291 limits assumed): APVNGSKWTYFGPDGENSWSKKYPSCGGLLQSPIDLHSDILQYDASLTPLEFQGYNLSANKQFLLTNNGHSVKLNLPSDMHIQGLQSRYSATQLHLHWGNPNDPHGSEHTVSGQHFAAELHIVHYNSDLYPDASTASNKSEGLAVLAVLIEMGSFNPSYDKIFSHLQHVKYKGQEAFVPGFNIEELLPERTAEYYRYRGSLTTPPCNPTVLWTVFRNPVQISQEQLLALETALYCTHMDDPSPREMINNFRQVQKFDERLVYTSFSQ
T19 sequence (Q8VHB5 32-389 limits assumed): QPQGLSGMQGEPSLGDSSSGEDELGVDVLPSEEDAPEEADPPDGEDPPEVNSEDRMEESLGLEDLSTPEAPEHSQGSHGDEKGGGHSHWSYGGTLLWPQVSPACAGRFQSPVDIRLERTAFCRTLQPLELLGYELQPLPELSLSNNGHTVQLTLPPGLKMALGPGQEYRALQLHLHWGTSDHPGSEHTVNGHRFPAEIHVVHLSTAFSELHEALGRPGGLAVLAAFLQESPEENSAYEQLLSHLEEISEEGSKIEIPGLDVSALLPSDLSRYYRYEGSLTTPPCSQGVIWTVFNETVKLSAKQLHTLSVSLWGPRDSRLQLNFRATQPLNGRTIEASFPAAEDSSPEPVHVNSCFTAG
T16 sequence (P22748 19-283 limits assumed): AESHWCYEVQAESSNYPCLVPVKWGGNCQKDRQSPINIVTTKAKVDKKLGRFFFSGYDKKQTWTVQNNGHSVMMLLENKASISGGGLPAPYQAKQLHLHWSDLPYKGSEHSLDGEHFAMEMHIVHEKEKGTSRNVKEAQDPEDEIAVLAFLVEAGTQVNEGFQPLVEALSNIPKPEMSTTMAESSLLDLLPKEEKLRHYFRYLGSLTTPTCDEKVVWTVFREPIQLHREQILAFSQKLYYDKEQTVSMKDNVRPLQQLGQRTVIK
T22 sequence (P32781 19-87 limits assumed, chain 1 of 2, other chains not shown): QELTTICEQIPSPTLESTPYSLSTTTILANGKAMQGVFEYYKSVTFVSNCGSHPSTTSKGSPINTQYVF
T9 sequence (P32781 19-87 limits assumed): as the sequence (P32781 19-87 limits assumed, chain 1 of 2, other chains not shown) above
T5 sequence (P32781 19-87 limits assumed, chain 1 of 2): as the sequence (P32781 19-87 limits assumed, chain 1 of 2, other chains not shown) above
T5 sequence (chain (part 2 of 2), as listed by the source limits assumed, chain 2 of 2): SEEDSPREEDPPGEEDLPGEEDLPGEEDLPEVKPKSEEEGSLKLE
T11 sequence (P32781 19-87 limits assumed): as the sequence (P32781 19-87 limits assumed, chain 1 of 2, other chains not shown) above
T2 sequence (P32781 19-87 limits assumed): as the sequence (P32781 19-87 limits assumed, chain 1 of 2, other chains not shown) above
T4 sequence (P32781 19-87 limits assumed): as the sequence (P32781 19-87 limits assumed, chain 1 of 2, other chains not shown) above
T8 sequence (P32781 19-87 limits assumed): as the sequence (P32781 19-87 limits assumed, chain 1 of 2, other chains not shown) above
T6 sequence (P32781 19-87 limits assumed): as the sequence (P32781 19-87 limits assumed, chain 1 of 2, other chains not shown) above
T23 sequence (P32781 19-87 limits assumed, chain 1 of 2, other chains not shown): as above
T12 sequence (P32781 19-87 limits assumed): as the sequence (P32781 19-87 limits assumed, chain 1 of 2, other chains not shown) above
T7 sequence (P32781 19-87 limits assumed): as the sequence (P32781 19-87 limits assumed, chain 1 of 2, other chains not shown) above
T10 sequence (P32781 19-87 limits assumed): as the sequence (P32781 19-87 limits assumed, chain 1 of 2, other chains not shown) above
T14 sequence (P32781 19-87 limits assumed, chain 1 of 2): as the sequence (P32781 19-87 limits assumed, chain 1 of 2, other chains not shown) above
T14 sequence (chain (part 2 of 2), as listed by the source limits assumed, chain 2 of 2): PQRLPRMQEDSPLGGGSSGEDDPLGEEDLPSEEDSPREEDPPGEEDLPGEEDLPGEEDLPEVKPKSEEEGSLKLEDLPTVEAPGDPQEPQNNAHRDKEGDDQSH
T13 sequence (P32781 19-87 limits assumed, chain 1 of 2): as the sequence (P32781 19-87 limits assumed, chain 1 of 2, other chains not shown) above
T13 sequence (chain (part 2 of 2), as listed by the source limits assumed, chain 2 of 2): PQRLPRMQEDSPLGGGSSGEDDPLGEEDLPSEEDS
T3 sequence (P32781 19-87 limits assumed): as the sequence (P32781 19-87 limits assumed, chain 1 of 2, other chains not shown) above
T1 sequence (P32781 19-87 limits assumed, chain 1 of 2): as the sequence (P32781 19-87 limits assumed, chain 1 of 2, other chains not shown) above
T1 sequence (chain (part 2 of 2), as listed by the source limits assumed, chain 2 of 2): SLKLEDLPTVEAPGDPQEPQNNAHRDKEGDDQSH
T15 sequence (Q8VHB5 32-390): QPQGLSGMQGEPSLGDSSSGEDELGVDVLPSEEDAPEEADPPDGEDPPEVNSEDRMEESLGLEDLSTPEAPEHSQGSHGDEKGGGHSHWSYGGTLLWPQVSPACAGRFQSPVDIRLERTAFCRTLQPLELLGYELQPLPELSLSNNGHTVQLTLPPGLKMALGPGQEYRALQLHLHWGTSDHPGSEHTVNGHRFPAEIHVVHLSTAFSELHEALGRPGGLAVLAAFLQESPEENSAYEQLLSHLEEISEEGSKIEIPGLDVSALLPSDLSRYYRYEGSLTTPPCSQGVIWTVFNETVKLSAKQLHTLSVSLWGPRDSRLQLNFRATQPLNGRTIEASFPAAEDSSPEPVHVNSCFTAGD

Binder	binding result [2]	binding result [4]	binding result [6]	binding result [8]	binding result [9]	binding result [11]	binding result [14]	binding result (rhCA-IV)	binding result (rhCA-XIV)	binding result (rhCA-XII)	binding result (rmCA-IX)	binding result [16]	binding result [19]	further results
B1	no binding	no binding	no binding	no binding	no binding	no binding	binds	no binding (tested: 100 nM)	no binding (tested: 100 nM)	no binding (tested: 100 nM)	no binding (tested: 100 nM)	no binding (tested: 100 nM)	binds	binding result [1]: no binding; binding result [3]: no binding; binding result [5]: no binding; binding result [7]: no binding; binding result [10]: no binding; binding result [12]: binds; binding result [13]: binds; binding result [15]: no binding; Kd (rhCA-IX ECD dimer [17]): 0.979 nM; IC50 (nM), cell viability of sk-rc-52 cells, surrogate ADC assay (Mab-Zap saporin secondary antibody) [18]: 23.6 nM; binding result [20]: binds
B2	–	–	–	–	–	–	–	–	–	–	–	–	–	IC50 (nM), cell viability of sk-rc-52 cells, ADC assay [18]: 17.9 nM
B3	–	–	–	–	–	–	–	–	–	–	–	–	–	Ratio (A)/(B), native over denatured [21]: 1.11; koff [22]: < 1e-05 s⁻¹; Kd (rhCA-IX ECD dimer [23]): 0.143 nM
B4	no binding	no binding	no binding	no binding	no binding	no binding	binds	no binding (tested: 100 nM)	no binding (tested: 100 nM)	no binding (tested: 100 nM)	no binding (tested: 100 nM)	no binding (tested: 100 nM)	binds	binding result [24]: no binding; binding result [25]: no binding; binding result [26]: binds; binding result [27]: binds; binding result [28]: binds; binding result [29]: binds
